Results: the supplement of paper PMC7877785
± gives the uncertainty stated by the source.

Assay: self-splicing fitness, log relative to wild type (ln ratio); higher = more splicing; Tetrahymena group I intron in knt gene, E. coli kanamycin selection, DiMSum; sequences stand for … in CUCUCU…GGAGGGAAAAGUUAUCAGGCAUGCACCUGGUAGCUAGUCUUUAAACCAAUAGAUUGCAUCGGUUUAAAAGGCAAGACCGUCAAAUUGCGGGAAAGGGGUCAACAGCCGUUCAGUACCAAGUCUCAGGGGAAACUUUGAGAUGGCCUUGCAAAGGGUAUGGUAAUAAGCUGACGGACAUGGUCCUAACCACGCAGCCAAGUCCUAAGUCAACAGAUCUUCUGUUGAUAUGGAUGCAGUUCACAGACUAAAUGUCGGUCGGGGAAGAUGUAUUCUUCUCAUAAGAUAUAGUCGGACCUCUCCUUAAUGGGAGCUAGCGGAUGAAGUGAUGCAACACUGGAGCCGCUGGGAACUAAUUUGUAUGCGAAAGUAUAUUGAUUAGUUUUGGAGUACUCGUGGUCG
In short: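 Six replicate transformations of E. coli BL21(DE3) with a pET-22b(+) library were grown overnight at 37°C or 30°C. The library randomised all eight P1ex-region intron nucleotides, the intron lying in the knt kanamycin-resistance gene, and plates were LB agar with or without 25 μg/mL kanamycin plus 100 μg/mL carbenicillin, 50 μM IPTG and 0.2% rhamnose. Pooled colonies were amplicon-sequenced on an Illumina HiSeq 2500, and fitness is the DiMSum error-weighted combination of wild-type-normalised replicate fold changes, kanamycin versus none.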

Row | Sequence | self-splicing fitness (ln) (30 °C) | self-splicing fitness (ln) (37 °C)
1 | CAACAGCAAUAUUACGGUCU | -3.01 ± 0.11 | -2.07 ± 0.095
2 | CUGAAGCAAUAUUACGUCUC | – | -1.47 ± 0.18
3 | UAACAGCAAUAUUACGACGG | -1.27 ± 0.085 | -0.26 ± 0.11
4 | AGCAAGCAAUAUUACGCUCA | -2.66 ± 0.18 | -1.69 ± 0.15
5 | CGUUAGCAAUAUUACGUCAG | -0.851 ± 0.13 | 0.0149 ± 0.14
6 | GGAAAGCAAUAUUACGAUCU | -3.9 ± 0.42 | -1.68 ± 0.32
7 | AUAUAGCAAUAUUACGCGUC | -3.3 ± 0.26 | -2.26 ± 0.28
8 | GACAAGCAAUAUUACGAUAU | -1.33 ± 0.099 | -1.4 ± 0.1
9 | AUGUAGCAAUAUUACGAUUG | -1.21 ± 0.15 | -3.05 ± 0.38
10 | UUUAAGCAAUAUUACGACUC | -0.391 ± 0.24 | -0.881 ± 0.4
11 | UUCCAGCAAUAUUACGGUCU | -2.54 ± 0.33 | -2.13 ± 0.3
12 | UUGCAGCAAUAUUACGAGUA | -1.92 ± 0.16 | -1.42 ± 0.15
13 | UUGUAGCAAUAUUACGAAUC | -3.06 ± 0.14 | -2.76 ± 0.24
14 | CUUGAGCAAUAUUACGUAGA | -3.54 ± 0.21 | -3.91 ± 0.39
15 | CCCGAGCAAUAUUACGAAAU | -3.65 ± 0.33 | -0.929 ± 0.16
16 | GAAGAGCAAUAUUACGAAUG | -2.23 ± 0.4 | –
17 | UUUCAGCAAUAUUACGGAUC | -1.14 ± 0.07 | -0.289 ± 0.089
18 | UAUUAGCAAUAUUACGGCUC | -0.997 ± 0.4 | 0.595 ± 0.44
19 | GGAGAGCAAUAUUACGCUCA | -2.77 ± 0.27 | -0.851 ± 0.26
20 | CAUAAGCAAUAUUACGAUGG | 0.0378 ± 0.065 | -0.159 ± 0.093

Row | Sequence | self-splicing fitness (ln) (30 °C) | self-splicing fitness (ln) (37 °C)
21 | CCUAAGCAAUAUUACGAUAC | -3.63 ± 0.4 | -2.3 ± 0.27
22 | GCAUAGCAAUAUUACGGGAA | -2.52 ± 0.21 | -0.707 ± 0.12
23 | AUAAAGCAAUAUUACGAUUA | -0.144 ± 0.073 | 0.683 ± 0.095
24 | CUGAAGCAAUAUUACGCUAU | -3.68 ± 0.16 | -2.04 ± 0.14
25 | UGGCAGCAAUAUUACGCUUC | -2.18 ± 0.28 | –
26 | GUUAAGCAAUAUUACGAUAC | -1.34 ± 0.21 | -0.951 ± 0.28
27 | CCUAAGCAAUAUUACGAUAA | -2.87 ± 0.2 | -3.37 ± 0.28
28 | CCCGAGCAAUAUUACGGACC | -3 ± 0.28 | –
29 | GGCGAGCAAUAUUACGCUGA | -1.82 ± 0.2 | -2.12 ± 0.18
30 | GCCGAGCAAUAUUACGCAGA | -3.39 ± 0.47 | -2.39 ± 0.29
31 | UUAAAGCAAUAUUACGUGUC | -1.09 ± 0.14 | -1.42 ± 0.16
32 | GUGCAGCAAUAUUACGUGAU | -1.98 ± 0.078 | -0.862 ± 0.086
33 | AACCAGCAAUAUUACGGGGC | -3.59 ± 0.16 | -2.64 ± 0.16
34 | CCUCAGCAAUAUUACGUGCA | -4.09 ± 0.37 | -2.32 ± 0.35
35 | CGAAAGCAAUAUUACGACCC | -1.42 ± 0.2 | -0.478 ± 0.23
36 | CAGGAGCAAUAUUACGACGU | -3.17 ± 0.16 | -2.13 ± 0.2
37 | AGCUAGCAAUAUUACGUGAU | -3.09 ± 0.15 | -1.79 ± 0.15
38 | UCUAAGCAAUAUUACGUACG | -0.481 ± 0.11 | 0.49 ± 0.13
39 | CCACAGCAAUAUUACGGCGU | -3.24 ± 0.21 | -2.75 ± 0.31
